# Values of other authors as cited in patent publication US20040115213A1, “Use of IL-2 receptor antibodies” (priority 2002, published 2004).
# Legend:
# [1] = patients given amphotericin-B
# [2] = monkeys; Hakimi et al.
# [3] = human patients
compound,measurement,setting,value
"CC1OC(O[C@H]2/C=C/C=C/C=C/C=C/C=C/C=C/C=C/[C@H](C)[C@@H](O)[C@@H](C)[C@H](C)OC(=O)C[C@H](O)C[C@H](O)CC[C@@H](O)[C@H](O)C[C@H](O)C[C@]3(O)C[C@H](O)C(C(=O)O)[C@H](C2)O3)C(O)C(N)C1O (stereo partly drawn) [amphotericin-B, [1R-(1 R *,3 S *, 5 R *, 6 R *,9 R *,11 R *,15 S *,16 R *,17 R *,18 S *, 19 E,21 E, 23 E,25 E, 27 E,29 E,31 E,33 R *,35 S *,36 R *,37 S *)]-33-[(3-Amino-3,6-dideoxy-(beta)-D-mannopyranosyl)oxy]-1,3,5,6,9,11,17,37-octahydroxy-15,16,18-trimethyl-13-oxo-14,39-dioxabi-cyclo[33.3.1]nonatriaconta-19,21,23,25,27,29,31-heptaene-36-carboxylic acid]",patients experiencing some degree of nephrotoxicity,[1],Over 80%
"humanized anti-Tac: humanized monoclonal antibody that binds to the p55 subunit of the human IL-2 receptor, described in U.S. Pat. No. 5,530,101",immunogenicity relative to mouse antibody,[2],reduced immunogenicity relative to mouse anti-Tac
same,immunogenicity (HAMA response),[3],(essentially) non-immunogenic
